# Earlier results as cited in article PMC5650668.
# Read-outs that look alike come from different tables or passages of the source.
# How the values were obtained:
# [1] = biological target: ω-agatoxin IVA (Agelenopsis aperta) (UniProt P30288)
# [2] = biological target: ω-agatoxin IVA (Agelenopsis aperta) (UniProt P30288); remark: listed apart in the source
# Chain of UniProt P30288 (P30288 whole entry): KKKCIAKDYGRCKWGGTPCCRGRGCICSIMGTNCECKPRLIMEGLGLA
Substance,Kd [1] [nM],Kd [2] [nM]
Cav2.1 (P current component) (from UniProt P54282),2,–
Cav2.1 (Q current component) (from UniProt P54282),–,> 100
